PMC6537586

Settings: ubiquitination at K571

Q: For ELL2: K571R, which degradation_or_half_life is on record?
A: The degradation_or_half_life was “no change, half-life less than 6 h”.
